# Assay results: article PMC3898201
# Legend:
# [1] = target: proteasome catalytic subunit β2 (in the purified rabbit 20S constitutive proteasome) (rabbit); experiment: FRET or BRET
# [2] = target: proteasome catalytic subunit β5 (in the purified rabbit 20S constitutive proteasome) (rabbit); experiment: FRET or BRET
FRET efficiency E [1],FRET efficiency E [2],FRET efficiency E (fluorophores swapped: LKSCy3:UKPCy5) [2],Substance
0.45,–,–,proteasome catalytic subunit β5 (in the purified rabbit 20S constitutive proteasome) (natural protein)
0.18,0.55,0.55,proteasome catalytic subunit β1 (in the purified rabbit 20S constitutive proteasome) (natural protein)
